Results reported in patent US20260242478A1 (published 2026).

Tests used:
[1] = biological target: T1, Anti-CD28 Fab (SEQ ID NOs: 696, 697); assay: phage ELISA; biotinylated anti-CD28 Fab on neutravidin plate, clonal phage supernatant, anti-M13 HRP detection;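 note: crude supernatants of single phage clones picked after panning were screened for binding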
T1 construct: In the phage ELISA the Fab was biotinylated and captured on neutravidin coated plates
T1 sequence (VH, as listed by the source, chain 1 of 2): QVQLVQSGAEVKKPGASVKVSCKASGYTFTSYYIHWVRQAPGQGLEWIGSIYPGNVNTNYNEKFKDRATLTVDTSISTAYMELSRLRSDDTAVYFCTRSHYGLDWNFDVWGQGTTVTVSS
T1 sequence (VL, as listed by the source, chain 2 of 2): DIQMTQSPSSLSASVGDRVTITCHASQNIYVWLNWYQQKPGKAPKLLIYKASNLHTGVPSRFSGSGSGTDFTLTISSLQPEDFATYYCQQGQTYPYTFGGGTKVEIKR

[2] = biological target: T1, Anti-CD28 Fab (SEQ ID NOs: 696, 697); assay: phage ELISA as above with wells pre-incubated with CD28 antigen as competitor
Description: (§1) After panning, phage infected bacteria were plated out and colonies picked into 96 well blocks. Clonal phage was then amplified and separated from bacterial cells via centrifugation.
(§2) Clonal phage were harvested as crude supematants and screened via standard ELISAs. […] Prior to the addition of clonal phage, wells were incubated with blocking buffer and CD28 antigen or blocking buffer alone. Without washing or aspirating, clonal phage supematants were then added to the wells and incubated for a short time. Wells were then washed followed by detection of bound phage using a horse radish conjugated anti-M13 antibody. Clonal phage of interest were then sent for sequence analysis.

[3] = biological target: Anti-CD28 Fab (SEQ ID NOs: 696, 697); assay: phage binding ELISA on Fab coated plate; CD28 antigen as competitor
Target sequence in this assay (VH, as listed by the source, chain 1 of 2): as the sequence (VH, as listed by the source, chain 1 of 2) above
Target sequence in this assay (VL, as listed by the source, chain 2 of 2): as the sequence (VL, as listed by the source, chain 2 of 2) above
Description: as §1, §2

[4] = biological target: Anti-CD28 Fab (SEQ ID NOs: 696, 697); assay: phage binding ELISA; biotinylated Fab on neutravidin plate, anti-M13 HRP detection
Target sequence in this assay (VH, as listed by the source, chain 1 of 2): as the sequence (VH, as listed by the source, chain 1 of 2) above
Target sequence in this assay (VL, as listed by the source, chain 2 of 2): as the sequence (VL, as listed by the source, chain 2 of 2) above
Description: as §1, §2

[5] = biological target: T2, Anti-CD28 Fab (SEQ ID NOs: 696, 697); assay: phage ELISA, clonal phage on biotinylated anti-CD28 Fab captured on neutravidin plates;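 note: crude clonal phage supernatants added to wells pretreated with CD28 antigen or with blocking buffer only, bound phage detected by HRP-linked anti-M13 antibody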
T2 construct: In the phage ELISA the Fab was biotinylated and captured on neutravidin coated plates
T2 sequence (VH, as listed by the source, chain 1 of 2): as the sequence (VH, as listed by the source, chain 1 of 2) above
T2 sequence (VL, as listed by the source, chain 2 of 2): as the sequence (VL, as listed by the source, chain 2 of 2) above
Description: as §1, §2

[6] = biological target: T2, Anti-CD28 Fab (SEQ ID NOs: 696, 697); assay: phage ELISA on captured anti-CD28 Fab, wells pre-incubated with CD28 antigen as competitor;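 note: crude clonal phage supernatants added without washing, bound phage read out by HRP-coupled anti-M13 antibody, reference wells given blocking buffer only instead of CD28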
[7] = biological target: T3, Anti-CD28 Fab (SEQ ID NOs: 696, 697); assay: phage binding ELISA on captured Fab; competitor: CD28 antigen pre-incubated in the wells
T3 construct: Biotinylated and captured on neutravidin coated plates in the phage ELISA
T3 sequence (VH, as listed by the source, chain 1 of 2): as the sequence (VH, as listed by the source, chain 1 of 2) above
T3 sequence (VL, as listed by the source, chain 2 of 2): as the sequence (VL, as listed by the source, chain 2 of 2) above
Description: as §1, §2

[8] = biological target: T4, Anti-CD28 Fab (SEQ ID NOs: 696, 697); assay: phage ELISA; clonal phage on plate-captured anti-CD28 Fab pre-incubated with CD28 antigen as competitor
T4 construct: Biotinylated and captured on neutravidin coated plates in the phage ELISA
T4 sequence (VH, as listed by the source, chain 1 of 2): as the sequence (VH, as listed by the source, chain 1 of 2) above
T4 sequence (VL, as listed by the source, chain 2 of 2): as the sequence (VL, as listed by the source, chain 2 of 2) above
Description: as §1, §2

[9] = biological target: T4, Anti-CD28 Fab (SEQ ID NOs: 696, 697); assay: phage ELISA; clonal phage on plate-captured biotinylated anti-CD28 Fab, anti-M13 HRP detection
Description: as §1, §2

B1: Phage-1037 (peptide)
peptide: YCDGHLAIYMWKCL
notes: Tested as clonal phage supernatant
Anti-CD28 Fab signal (phage binding ELISA) [1]: 1.45
Anti-CD28 Fab signal in the presence of CD28 (phage binding ELISA) [2]: 0.09

B2: Phage-1024 (peptide)
peptide: YCEGHRPEYMQKCV
Anti-CD28 Fab signal in the presence of CD28 [3]: 0.09
Anti-CD28 Fab (SEQ ID NOs: 696, 697) signal [4]: 1.48

B3: Phage-1055 (peptide)
peptide: YCEGHSQQYMQKCL
Anti-CD28 Fab signal (phage binding ELISA) [5]: 1.42
Anti-CD28 Fab signal in the presence of CD28 (phage binding ELISA) [6]: 0.08

B4: Phage-1030 (peptide)
peptide: YCDGHLAIYIGKCL
Anti-CD28 Fab signal in the presence of CD28 [3]: 0.08
Anti-CD28 Fab (SEQ ID NOs: 696, 697) signal [4]: 1.47

B5: Phage-1056 (peptide)
peptide: YCDGHSPAFIQKCL
Anti-CD28 Fab signal (phage binding ELISA) [5]: 1.42
Anti-CD28 Fab signal in the presence of CD28 (phage binding ELISA) [6]: 0.08

B6: Phage-1041 (peptide)
peptide: YCAGHLPQYIQKCL
notes: as for B1
Anti-CD28 Fab signal (phage binding ELISA) [1]: 1.44
Anti-CD28 Fab signal in the presence of CD28 (phage binding ELISA) [2]: 0.07

B7: Phage-1044 (peptide)
peptide: YCEGHLPIYMEKCL
notes: as for B1
Anti-CD28 Fab signal (phage binding ELISA) [1]: 1.44
Anti-CD28 Fab signal in the presence of CD28 (phage binding ELISA) [2]: 0.07

B8: Phage-1053 (peptide)
peptide: YCDGHLDEYMLKCL
Anti-CD28 Fab signal (phage binding ELISA) [5]: 1.43
Anti-CD28 Fab signal in the presence of CD28 (phage binding ELISA) [6]: 0.06

B9: Phage-1052 (peptide)
peptide: YCLGHSWPYIHKCY
Anti-CD28 Fab signal (phage binding ELISA) [5]: 1.43
Anti-CD28 Fab signal in the presence of CD28 (phage binding ELISA) [6]: 0.07

B10: Phage-1060 (peptide)
peptide: YCAGHAEEYLEKCL
Anti-CD28 Fab signal (phage binding ELISA) [5]: 1.41
Anti-CD28 Fab signal in the presence of CD28 (phage binding ELISA) [6]: 0.15

B11: Phage-1058 (peptide)
peptide: YCQGHSPNYITKCF
Anti-CD28 Fab signal (phage binding ELISA) [5]: 1.41
Anti-CD28 Fab signal in the presence of CD28 (phage binding ELISA) [6]: 0.06

B12: Phage-1016 (Peptide-87 library peptide, SEQ ID NO: 1332) (peptide)
peptide: YCDGHSPQYIQKCL
notes: tested as crude clonal phage supernatant
Anti-CD28 Fab signal in the presence of CD28 (phage binding ELISA) [7]: 0.07

B13: Phage-1042 (peptide)
peptide: YCEGHLAIYQKKCL
notes: as for B1
Anti-CD28 Fab signal (phage binding ELISA) [1]: 1.44
Anti-CD28 Fab signal in the presence of CD28 (phage binding ELISA) [2]: 0.06

B14: Phage-1031 (peptide)
peptide: YCDGHLEIYMSKCL
Anti-CD28 Fab signal in the presence of CD28 [3]: 0.08
Anti-CD28 Fab (SEQ ID NOs: 696, 697) signal [4]: 1.46

B15: Phage-1034 (peptide)
peptide: YCEGHSLEHIAKCL
Anti-CD28 Fab signal in the presence of CD28 [3]: 0.07
Anti-CD28 Fab (SEQ ID NOs: 696, 697) signal [4]: 1.46

B16: Phage-1048 (peptide)
peptide: YCDGHNFQYMEKCL
notes: as for B1
Anti-CD28 Fab signal (phage binding ELISA) [1]: 1.44
Anti-CD28 Fab signal in the presence of CD28 (phage binding ELISA) [2]: 0.06

B17: Phage-1011 (Peptide-87 library peptide, SEQ ID NO: 1327) (peptide)
peptide: YCDGHSAEYLSKCL
notes: as for B12
Anti-CD28 Fab signal in the presence of CD28 (phage binding ELISA) [7]: 0.07

B18: Phage-1051 (peptide)
peptide: YCDGHSLEYIEKCL
Anti-CD28 Fab signal (phage binding ELISA) [5]: 1.43
Anti-CD28 Fab signal in the presence of CD28 (phage binding ELISA) [6]: 0.06

B19: Phage-1029 (peptide)
peptide: YCAGHTQEYIEKCL
Anti-CD28 Fab signal in the presence of CD28 [3]: 0.06
Anti-CD28 Fab (SEQ ID NOs: 696, 697) signal [4]: 1.47

B20: Phage-1040 (peptide)
peptide: YCEGHLPQYMTKCI
notes: as for B1
Anti-CD28 Fab signal (phage binding ELISA) [1]: 1.44
Anti-CD28 Fab signal in the presence of CD28 (phage binding ELISA) [2]: 0.08

B21: Phage-1050 (peptide)
peptide: YCDGHLPEYIAKCQ
Anti-CD28 Fab signal (phage binding ELISA) [5]: 1.43
Anti-CD28 Fab signal in the presence of CD28 (phage binding ELISA) [6]: 0.07

B22: Phage-1061 (peptide)
peptide: YCDGHSHEYMQKCL
Anti-CD28 Fab signal (phage binding ELISA) [5]: 1.41
Anti-CD28 Fab signal in the presence of CD28 (phage binding ELISA) [6]: 0.06

B23: Phage-1049 (peptide)
peptide: YCVGHLPQYMQKCL
Anti-CD28 Fab signal (phage binding ELISA) [5]: 1.43
Anti-CD28 Fab signal in the presence of CD28 (phage binding ELISA) [6]: 0.06

B24: Phage-1046 (peptide)
peptide: YCEGHSQEYMAKCL
notes: as for B1
Anti-CD28 Fab signal (phage binding ELISA) [1]: 1.44
Anti-CD28 Fab signal in the presence of CD28 (phage binding ELISA) [2]: 0.06

B25: Phage-1019 (Peptide-87 library peptide, SEQ ID NO: 1335) (peptide)
peptide: YCDGHLALHMKKCL
notes: as for B12
Anti-CD28 Fab signal in the presence of CD28 (phage binding ELISA) [7]: 0.08

B26: Phage-1028 (peptide)
peptide: YCEGHLDQYMTKCL
Anti-CD28 Fab signal in the presence of CD28 [3]: 0.08
Anti-CD28 Fab (SEQ ID NOs: 696, 697) signal [4]: 1.47

B27: Phage-1043 (peptide)
peptide: YCEGHAVEYMAKCL
notes: as for B1
Anti-CD28 Fab signal (phage binding ELISA) [1]: 1.44
Anti-CD28 Fab signal in the presence of CD28 (phage binding ELISA) [2]: 0.07

B28: Phage-1023 (peptide)
peptide: YCDGHLPEYITKCL
Anti-CD28 Fab signal in the presence of CD28 [3]: 0.06
Anti-CD28 Fab (SEQ ID NOs: 696, 697) signal [4]: 1.49

B29: Phage-1025 (peptide)
peptide: YCAGHTVENMAKCL
Anti-CD28 Fab signal in the presence of CD28 [3]: 0.07
Anti-CD28 Fab (SEQ ID NOs: 696, 697) signal [4]: 1.48

B30: Phage-1015 (Peptide-87 library peptide, SEQ ID NO: 1331) (peptide)
peptide: YCDGHKAEYMQKCL
notes: as for B12
Anti-CD28 Fab signal in the presence of CD28 (phage binding ELISA) [7]: 0.06

B31: Phage-1039 (peptide)
peptide: YCDGHSLQYMSKCL
notes: as for B1
Anti-CD28 Fab signal (phage binding ELISA) [1]: 1.45
Anti-CD28 Fab signal in the presence of CD28 (phage binding ELISA) [2]: 0.06

B32: Phage-1033 (peptide)
peptide: YCDGHSLEYMVKCL
Anti-CD28 Fab signal in the presence of CD28 [3]: 0.06
Anti-CD28 Fab (SEQ ID NOs: 696, 697) signal [4]: 1.46

B33: Phage-1035 (peptide)
peptide: YCEGHTPVYMPKCL
Anti-CD28 Fab signal in the presence of CD28 [3]: 0.06
Anti-CD28 Fab (SEQ ID NOs: 696, 697) signal [4]: 1.46

B34: Phage-1018 (Peptide-87 library peptide, SEQ ID NO: 1334) (peptide)
peptide: YCDGHHKEYLLKCL
notes: as for B12
Anti-CD28 Fab signal in the presence of CD28 (phage binding ELISA) [7]: 0.06

B35: Phage-1027 (peptide)
peptide: YCDGHVAEYRHKCL
Anti-CD28 Fab signal in the presence of CD28 [3]: 0.06
Anti-CD28 Fab (SEQ ID NOs: 696, 697) signal [4]: 1.47

B36: Phage-1036 (peptide)
peptide: YCQGHIEPYLAKCL
notes: as for B1
Anti-CD28 Fab signal (phage binding ELISA) [1]: 1.46
Anti-CD28 Fab signal in the presence of CD28 (phage binding ELISA) [2]: 0.05

B37: Phage-1054 (peptide)
peptide: YCDGHTPEYMWKCL
Anti-CD28 Fab signal (phage binding ELISA) [5]: 1.43
Anti-CD28 Fab signal in the presence of CD28 (phage binding ELISA) [6]: 0.06

B38: Phage-1059 (peptide)
peptide: YCDGHAPEYLGKCL
Anti-CD28 Fab signal (phage binding ELISA) [5]: 1.41
Anti-CD28 Fab signal in the presence of CD28 (phage binding ELISA) [6]: 0.06

B39: Phage-1017 (Peptide-87 library peptide, SEQ ID NO: 1333) (peptide)
peptide: YCSGHLPQYLEKCL
notes: as for B12
Anti-CD28 Fab signal in the presence of CD28 (phage binding ELISA) [7]: 0.31

B40: Phage-1045 (peptide)
peptide: YCEGHSMEYIQKCL
notes: as for B1
Anti-CD28 Fab signal (phage binding ELISA) [1]: 1.44
Anti-CD28 Fab signal in the presence of CD28 (phage binding ELISA) [2]: 0.07

B41: Phage-1032 (peptide)
peptide: YCDGHLLEYMSKCL
Anti-CD28 Fab signal in the presence of CD28 [3]: 0.09
Anti-CD28 Fab (SEQ ID NOs: 696, 697) signal [4]: 1.46

B42: Phage-1038 (peptide)
peptide: YCDGHAEEYMAKCL
notes: as for B1
Anti-CD28 Fab signal (phage binding ELISA) [1]: 1.45
Anti-CD28 Fab signal in the presence of CD28 (phage binding ELISA) [2]: 0.06

B43: Phage-1026 (peptide)
peptide: YCEGHVLEYRGKCD
Anti-CD28 Fab signal in the presence of CD28 [3]: 0.09
Anti-CD28 Fab (SEQ ID NOs: 696, 697) signal [4]: 1.48

B44: Phage-1047 (peptide)
peptide: YCDGHLPEYMNQCL
notes: as for B1
Anti-CD28 Fab signal (phage binding ELISA) [1]: 1.44
Anti-CD28 Fab signal in the presence of CD28 (phage binding ELISA) [2]: 0.07

B45: Phage-1009 (peptide)
peptide: YCAGHLEEYMWKCL
notes: as for B12
Phage binding ELISA, Anti-CD28 Fab signal in the presence of CD28 [8]: 0.08
Phage binding ELISA, Anti-CD28 Fab signal [9]: 1.51

B46: Phage-1057 (peptide)
peptide: YCDGHSLEYIDKCM
Anti-CD28 Fab signal (phage binding ELISA) [5]: 1.42
Anti-CD28 Fab signal in the presence of CD28 (phage binding ELISA) [6]: 0.09
